According to patent publication US20130142799A1 (Amgen, published 2013):

Assays:
Tie2-Fc = biological target: T1, Tie2-Fc (human, UniProt Q02763 23-748); experiment: ELISA at one concentration on conditioned medium with N-terminal hAng-2 (aa 1-254, 6xHis); O.D. 370; control pCDNA3 vector medium
T1 construct: extracellular domain; Bought reagent; Allophycocyanin-conjugated in the HTRF assay; also called hTie2-Fc; human Tie2-Fc; not shown: Fc portion of the bought Tie2-Fc
Method: The binding epitope of anti-Ang-2 antibodies and peptibodies was determined by their ability to bind the three versions of human hAng-2 by ELISA according to the following protocol: a high-binding 96-well assay plate was coated with 100 μl of conditioned media per well, and incubated at 37° C. for 1 hour. Conditioned media was aspirated, and the plate was blocked with 200 μl per well of 5% BSA in PBS at room temperature for 1 hour. The blocking solution was then aspirated. […] The wells were washed 4 times with 200 μl of 0.1% Tween in PBS. 100 μl per well of HRP-conjugated goat anti-human IgG or goat anti-mouse IgG were added, and incubated at room temperature for 45 minutes. The wells were then washed with 200 μl of 0.1% Tween in PBS 4 times. 100 μl per well of TMB substrate was then added. O.D. was read at 370 nm.

human angiopoietin-2 [1] = biological target: T2, human angiopoietin-2 (human, UniProt O15123 19-496, limits assumed); experiment: HTRF: antibody titrated against biotinylated human Ang2 and APC-conjugated human Tie2-Fc
T2 construct: also called hAng-2; huAng-2
T2 sequence (looked up): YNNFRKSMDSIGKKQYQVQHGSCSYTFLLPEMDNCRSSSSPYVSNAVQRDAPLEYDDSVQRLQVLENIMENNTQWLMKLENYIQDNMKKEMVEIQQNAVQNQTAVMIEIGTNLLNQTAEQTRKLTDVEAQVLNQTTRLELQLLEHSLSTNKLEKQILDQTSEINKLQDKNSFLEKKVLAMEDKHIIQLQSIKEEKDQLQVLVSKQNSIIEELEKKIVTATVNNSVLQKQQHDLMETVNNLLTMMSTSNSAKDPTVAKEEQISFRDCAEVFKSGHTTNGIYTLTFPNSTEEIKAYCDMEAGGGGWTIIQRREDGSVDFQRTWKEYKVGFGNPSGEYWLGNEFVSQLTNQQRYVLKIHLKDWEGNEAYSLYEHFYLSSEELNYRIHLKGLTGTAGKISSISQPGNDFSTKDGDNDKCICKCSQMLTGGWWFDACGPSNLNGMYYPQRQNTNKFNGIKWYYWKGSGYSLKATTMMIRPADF
Method: For HTRF assays, a ninety-six-well microtiter “mix plate” was prepared by adding 50 ul of HTRF buffer (50 mM Tris-HCl, pH 7.5, 100 mM NaCl, 0.05% Tween 20, 0.1% BSA) containing 0.8 nM Europium-conjugated streptavidin (PERKIN ELMER LIFE SCIENCES INC., catalog #AD0062) and 4.0 nM biotinylated human angiopoietin 1 (R & D Systems) or angiopoietin 2 (Amgen Inc.) to each well. In a separate microtiter plate, angiopoietin-neutralizing agents were titrated from 400 nM to […] in HTRF buffer, and 50 ul of each serially-diluted angiopoietin-neutralizing agent were then transferred and mixed with the “mix plate” containing the streptavidin-Europium/angiopoietin. The plate was then incubated on a shaker at room temperature for one hour. […] The final “assay plate” was incubated at room temperature with shaking for two hours. […] Assay plates were analyzed using a Rubystar plate reader (BMG Labtechnologies, Offenberg, Germany). […] IC50 values were then calculated by analyzing percentage inhibition using the GRAFIT 5.0 program (Erithacus Software Ltd.).
(§1) All results were expressed as IC50 curves calculated from samples that were tested in duplicate using the formula below.

human angiopoietin-2 [2] = biological target: T2, human angiopoietin-2; experiment: ELISA: antibody titrated against 1 nM hTie2-Fc on plate-bound human Ang2 (293T conditioned media)
Method: (§2) For the ELISA assay, ninety-six-well microtiter plates were coated with recombinant angiopoietins in 293T cell conditioned media (DMEM/50 ug/ml BSA) at 37° C. for 1 hour. […] Plates were washed with PBS/0.1% Tween-20 and then blocked for 2 hours at room temperature with PBS/5% BSA. […] Goat anti-mouse-IgG-HRP (Pierce, catalog #31432) was added at a dilution of 1:10,000 in PBS/1% BSA (1 hour incubated at room temperature), after which plates were washed several times with PBS/0.1% Tween-20.
as §1

[3] = biological target: T3, Mouse Ang2 (recombinant, 293T cell conditioned media) (mouse, UniProt O35608 19-496); experiment: ELISA: antibody titrated against 1 nM hTie2-Fc on plate-bound mouse Ang2 (293T conditioned media)
T3 construct: construct not described
T3 sequence (looked up): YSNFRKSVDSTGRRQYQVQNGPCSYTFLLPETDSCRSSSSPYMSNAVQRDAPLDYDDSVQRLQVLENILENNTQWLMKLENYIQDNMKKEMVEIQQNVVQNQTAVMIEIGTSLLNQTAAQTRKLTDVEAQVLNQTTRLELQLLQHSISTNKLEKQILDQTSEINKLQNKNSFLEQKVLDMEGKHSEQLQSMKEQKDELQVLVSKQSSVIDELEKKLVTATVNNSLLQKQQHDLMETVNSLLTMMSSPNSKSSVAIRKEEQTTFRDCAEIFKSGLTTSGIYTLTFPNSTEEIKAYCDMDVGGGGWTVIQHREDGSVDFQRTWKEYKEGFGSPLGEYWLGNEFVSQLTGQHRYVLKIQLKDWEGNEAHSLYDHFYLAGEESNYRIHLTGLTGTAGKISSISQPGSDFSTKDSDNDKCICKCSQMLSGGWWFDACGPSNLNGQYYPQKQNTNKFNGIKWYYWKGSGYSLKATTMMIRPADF
Method: as §2, §1

human angiopoietin-2 [4] = biological target: T2, human angiopoietin-2; experiment: BIAcore: antibody captured on Protein G, huAng-2 injected
Method: (§3) Binding assays were carried out by first attaching about 100 Ru of each candidate anti-Ang-2 antibody to the immobilized Protein G, after which various concentrations (0-100 nM) of huAng-2 or mAng-2 were then injected over the bound antibody surface at a flow rate of about 50 ul/min for about 3 minutes. Antibody binding kinetics including kₐ (association rate constant), kd (dissociation rate constant) and KD (dissociation equilibrium constant) were determined using the BIA evaluation 3.1 computer program (BIAcore, Inc.).

human angiopoietin-2 [5] = biological target: T2, human angiopoietin-2; experiment: Affinity ELISA on plate-bound hAng-2
human angiopoietin-1 [6] = biological target: T4, human angiopoietin-1 (human, UniProt Q15389 20-498); experiment: Neutralization ELISA: antibody titrated against 1 nM Tie2-Fc on plate-bound hAng-1
T4 construct: also called hAng-1; Human Ang1
T4 sequence (looked up): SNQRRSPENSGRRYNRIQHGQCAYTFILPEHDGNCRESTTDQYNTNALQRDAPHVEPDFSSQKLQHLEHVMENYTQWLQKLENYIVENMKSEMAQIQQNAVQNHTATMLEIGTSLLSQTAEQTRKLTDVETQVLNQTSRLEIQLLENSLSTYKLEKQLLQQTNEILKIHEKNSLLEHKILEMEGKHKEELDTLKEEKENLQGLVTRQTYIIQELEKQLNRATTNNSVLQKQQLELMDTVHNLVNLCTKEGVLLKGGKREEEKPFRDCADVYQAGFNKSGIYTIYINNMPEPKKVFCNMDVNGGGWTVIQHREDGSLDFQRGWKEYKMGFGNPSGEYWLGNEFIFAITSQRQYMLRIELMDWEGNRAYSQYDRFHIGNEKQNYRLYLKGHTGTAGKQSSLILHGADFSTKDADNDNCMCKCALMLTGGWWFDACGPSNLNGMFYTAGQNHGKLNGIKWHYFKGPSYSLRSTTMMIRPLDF

human angiopoietin-1 [7] = biological target: T4, human angiopoietin-1; experiment: Affinity ELISA on plate-bound hAng-1
murine Ang-2, His-tagged [8] = biological target: T5, murine Ang-2, His-tagged (mouse, UniProt O35608 19-496); experiment: Affinity ELISA on plate-bound mAng-2
T5 construct: also called mAng-2; mAng-2-His
T5 sequence (looked up): T3 sequence (looked up)

human angiopoietin-2 [9] = biological target: T2, human angiopoietin-2; experiment: Neutralization ELISA: antibody titrated against 1 nM Tie2-Fc on plate-bound hAng-2
Method: Microtiter plates to which human Ang-2 polypeptide was bound were prepared as described for the Affinity ELISA. […] Next, about 100 microliters per well of goat anti-mouse-IgG-HRP (Pierce Chemical CO., catalog #31432) was added at a dilution of 1:10,000 in PBS containing about 1 percent BSA. Plates were incubated at room temperature for about 1 hour, after which they were washed five times with PBS containing about 0.1 percent Tween-20. About 100 microliters per well of TMB substrate (described above) was then added and color was allowed to develop. Absorbance was then read in a spectrophotomer at 370 nm.
Seventeen of the antibodies and a negative control IgG1 (referred to as RDB1) were tested using affinity and neutralization ELISA (as described in Example 3 above) as well as the BIAcore neutralization assay to determine their affinity, neutralization, and specificity capabilities.

murine Ang-2, His-tagged [10] = biological target: T5, murine Ang-2, His-tagged; experiment: BIAcore: antibody captured on Protein G, mAng-2 injected
Method: as §3

murine Ang-2, His-tagged [11] = biological target: T5, murine Ang-2, His-tagged; experiment: Neutralization ELISA: antibody titrated against 1 nM Tie2-Fc on plate-bound mAng-2

T1 sequence (Q02763 23-748): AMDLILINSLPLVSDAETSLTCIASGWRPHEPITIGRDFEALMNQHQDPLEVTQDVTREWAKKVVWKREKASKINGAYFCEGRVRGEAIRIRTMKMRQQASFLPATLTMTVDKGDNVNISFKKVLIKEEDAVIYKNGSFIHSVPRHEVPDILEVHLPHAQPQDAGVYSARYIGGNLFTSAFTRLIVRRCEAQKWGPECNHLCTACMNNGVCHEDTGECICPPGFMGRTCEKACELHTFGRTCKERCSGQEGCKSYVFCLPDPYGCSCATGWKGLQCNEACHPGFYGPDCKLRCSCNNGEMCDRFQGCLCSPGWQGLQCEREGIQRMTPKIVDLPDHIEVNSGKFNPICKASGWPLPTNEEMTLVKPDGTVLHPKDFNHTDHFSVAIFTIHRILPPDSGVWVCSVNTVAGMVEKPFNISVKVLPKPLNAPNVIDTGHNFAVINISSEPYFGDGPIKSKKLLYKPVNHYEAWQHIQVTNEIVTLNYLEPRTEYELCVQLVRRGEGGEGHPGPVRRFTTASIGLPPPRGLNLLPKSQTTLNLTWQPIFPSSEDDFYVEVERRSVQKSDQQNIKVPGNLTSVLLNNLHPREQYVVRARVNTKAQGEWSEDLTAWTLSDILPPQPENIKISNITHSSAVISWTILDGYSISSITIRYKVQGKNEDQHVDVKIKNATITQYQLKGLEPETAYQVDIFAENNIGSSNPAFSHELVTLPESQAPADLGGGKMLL

B1: N-term hAng2 (aa 1-254) (ligand)
chain: YNNFRKSMDSIGKKQYQVQHGSCSYTFLLPEMDNCRSSSSPYVSNAVQRDAPLEYDDSVQRLQVLENIMENNTQWLMKLENYIQDNMKKEMVEIQQNAVQNQTAVMIEIGTNLLNQTAEQTRKLTDVEAQVLNQTTRLELQLLEHSLSTNKLEKQILDQTSEINKLQDKNSFLEKKVLAMEDKHIIQLQSIKEEKDQLQVLVSKQNSIIEELEKKIVTATVNNSVLQKQQHDLMETHHHHHH
notes: also called N-terminal human Ang-2
binding result (Tie2-Fc): no binding (tested: 1 µg/ml)

B2: Ab536 LQT (antibody, human IgG1, kappa, V domains shown)
VH: EVQLVQSGGGVVQPGRSLRLSCAASGFTFSSYGMHWVRQAPGKGLEWVSYISSSGSTIYYADSVKGRFTISRDNAKNSLYLQMNSLRAEDTAVYYCARDLLDYDILTGYGYWGQGTLVTVSS
VL: not shown
notes: Fully human IgG1 kappa; variant separated from the clone 536 mixture; also called 536 kappa LQT variant
IC50 (human angiopoietin-2 [1]): 0.072 nM | IC50 (human angiopoietin-2 [2]): 0.35 nM | IC50 [3]: 0.1 nM

B3: Ab 545 (antibody, human IgG1, lambda, V domains shown)
VH: QVQLQESGGGVVQPGRSLRLSCAASGFTFSSYGMHWVRQAPGKGLEWVAVISYDGSNKYYADSVKGRFTISRDNSKNTLYLQMNSLRAEDTAVYYCAKGPVDFDYGDYAIDYWGQGTLVTVSS
VL: QSVLTQPSSVSGAPGQRVTISCTGQSSNIGAGYDVHWYQQFPGRAPKLLIYGNSNRPSGVPDRFSGSKSGTSASLAITGLQPEDEADYYCQSYDSRLSGSVFGGGTKLTVLG
notes: Fully human IgG1 lambda; also called clone 545
Kd (human angiopoietin-2 [4]): 1.2 nM | koff (human angiopoietin-2 [4]): 0.00039 s⁻¹ | kon (human angiopoietin-2 [4]): 330000 M⁻¹ s⁻¹ | EC50 (human angiopoietin-2 [5]): 0.02 nM | IC50 (human angiopoietin-1 [6]): 8.31 nM | EC50 (human angiopoietin-1 [7]): 2 nM | EC50 (murine Ang-2, His-tagged [8]): 0.05 nM | IC50 (human angiopoietin-2 [9]): 1.04 nM | Kd (murine Ang-2, His-tagged [10]): 0.9 nM | koff (murine Ang-2, His-tagged [10]): 0.00053 s⁻¹ | kon (murine Ang-2, His-tagged [10]): 590000 M⁻¹ s⁻¹ | IC50 (murine Ang-2, His-tagged [11]): 1.3 nM

B4: Ab536 THW (antibody, human IgG1, kappa, V domains shown)
VH: B2 VH
VL: not shown
notes: Fully human IgG1 kappa; variant separated from the clone 536 mixture; also called 536 kappa THW variant
IC50 (human angiopoietin-2 [1]): 0.071 nM | IC50 (human angiopoietin-2 [2]): 0.31 nM | IC50 [3]: 0.088 nM
